Assay [1] concerns the target T1, EGFP-tagged human TRPC5EM (amino acids 1 to 765) in lipid nanodiscs (human, UniProt Q9UL62 1-765).
T1 sequence (looked up): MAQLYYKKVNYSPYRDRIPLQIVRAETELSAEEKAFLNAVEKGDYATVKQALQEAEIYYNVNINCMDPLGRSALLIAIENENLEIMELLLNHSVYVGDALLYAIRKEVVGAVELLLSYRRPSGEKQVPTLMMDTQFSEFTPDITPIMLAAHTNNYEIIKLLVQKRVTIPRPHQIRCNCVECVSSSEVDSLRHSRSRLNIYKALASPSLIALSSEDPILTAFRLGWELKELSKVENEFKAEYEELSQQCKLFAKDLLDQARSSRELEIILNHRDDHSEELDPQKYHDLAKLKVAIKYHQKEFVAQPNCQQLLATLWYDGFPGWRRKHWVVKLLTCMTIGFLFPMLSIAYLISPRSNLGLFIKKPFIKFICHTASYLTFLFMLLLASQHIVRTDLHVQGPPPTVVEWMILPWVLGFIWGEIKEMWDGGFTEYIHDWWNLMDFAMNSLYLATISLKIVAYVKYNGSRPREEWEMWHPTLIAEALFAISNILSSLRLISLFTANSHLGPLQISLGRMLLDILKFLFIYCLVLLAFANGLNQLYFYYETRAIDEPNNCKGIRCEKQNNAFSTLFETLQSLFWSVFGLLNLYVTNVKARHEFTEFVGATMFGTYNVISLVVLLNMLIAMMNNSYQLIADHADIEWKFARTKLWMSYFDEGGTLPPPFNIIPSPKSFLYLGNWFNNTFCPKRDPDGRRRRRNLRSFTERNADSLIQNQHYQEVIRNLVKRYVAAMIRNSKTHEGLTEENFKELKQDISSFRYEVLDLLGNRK
Briefly: cell-based or functional assay.

Assay [2] concerns the target T1, EGFP-tagged human TRPC5EM (amino acids …). Briefly: BLI; BLItz, AR2G biosensors; EGFP-tagged TRPC5 in lipid nanodiscs (500 nM) immobilised by NHS/EDC; GTP-activated Gαi3^Q204L flowed at 0.31-1.25 μM, 300 s association, 300 s dissociation; 20 mM HEPES-NaOH pH 8.0, 150 mM NaCl; fitted by specific binding with Hill slope. The settings on record: both partners purified.

Assay [3] addresses T2, human TRPC5 (amino acids 1 to 765, TRPC5EM) in lipid nanodiscs, EGFP and Twin-StrepII-tag removed (human, UniProt Q9UL62 1-765).
T2 construct: transient receptor potential canonical 5 (TRPC5), human, amino acids 1 to 765; C-terminal loop region (residues 766-973) truncated; Tags removed with HRV-3C protease after the complex with Gαi3 was formed; residues of the HRV-3C site may be left at the C-terminus; Reconstituted in MSP2N2 nanodiscs; also called TRPC5_(Class1); TRPC5_(Class2); source: HEK293S GnTI- suspension cells (BacMam), …
T2 sequence (looked up): T1 sequence (looked up)
Description: cryo-EM structure; TRPC5EM in MSP2N2/soybean lipid nanodiscs, alone or mixed with GTP-activated N-myristoylated Gαi3^Q204L at Gα:TRPC5 monomer = 6:1; Buffer A (50 mM Tris-HCl pH 8.0, 150 mM NaCl, 1 mM DTT) with 5 μM GTP; 2.5 mM CaCl2 added before vitrification; no PIP2. The following applies: both partners purified.

B1: N-myristoylated human Gαi3^Q204L, GTP-activated (natural protein)
chain: TLSAEDKAAVERSKMIDRNLREDGEKAAKEVKLLLLGAGESGKSTIVKQMKIIHEDGYSEDECKQYKVVVYSNTIQSIIAIIRAMGRLKIDFGEAARADDARQLFVLAGSAEEGVMTPELAGVIKRLWRDGGVQACFSRSREYQLNDSASYYLNDLDRISQSNYIPTQQDVLRTRVKTTGIVETHFTFKDLYFKMFDVGGLRSERKKWIHCFEGVTAIIFCVALSDYDLVLAEDEEMNRMHESMKLFDSICNNKWFTETSIILFLNKKDLFEEKIKRSPLTICYPEYTGSNTYEEAAAYIQCQFEDLNRRKDTKEIYTHFTCATDTKNVQFVFDAVTDVIIKNNLKE
modifications: myristoylation at the N-terminal glycine
notes: hexa-histidine tag inserted between M119 and T120; Incubated with 1 mM GTP for 1 h at 30 °C before use; The His tag is internal and no cleavage is described; Myristoylation of the N-terminal glycine implies loss of the first methionine; also called myristoylated Gαi3^Q204L
Turning to B1, the “fold increase in open probability (Po) by Gαi3 (14.6 μM against 0.07 μM) at physiological PIP2, excised inside-out patch” value in assay [1] is around 7 fold. Moreover, in assay [2], binding was characterised by a dissociation constant (Kd) of 530 nM. Moreover, in assay [3], the stoichiometry N (commonly a count of units in the complex or per binding partner) is at most 4 Gαi3 per TRPC5 tetramer.

(Values after publication PMC10156788, “Molecular architecture of the Gαi-bound TRPC5 ion channel” (Nature Communications, 2023).)
